Like-named read-outs stand apart in the source and are kept apart here. Each block holds one binder with its values, some of them ahead of it.
Experiments:
[1] = target: T1, PD-L1 expressed on the cell surface (CHO/PD-L1 cells) (UniProt Q9NZQ7 19-290); test: cell-based or functional assay
[2] = target: T1, PD-L1 expressed on the cell surface …; test: cell-based or functional assay; remark: listed apart in the source
[3] = target: T2, CD137 expressed on the cell surface (CHO/CD137 cells) (UniProt Q07011 24-255, limits assumed); test: flow cytometry (FACS) on CHO cells expressing CD137, MFI
T2 construct: whole, on cells; also called cell surface CD137; Jurkat-NF-κB-Luc reporter cells overexpressing CD137

[4] = target: T3, His-tagged soluble human CD137 fusion protein (huCD137) (human, UniProt Q07011 24-186); test: ELISA, plate-coated soluble human CD137
T3 construct: extracellular domain; The ELISA method allows a His or a human Fc fusion; also called shCD137 His; huCD137-His; not shown: His tag

[5] = target: T4, soluble cynomolgus monkey CD137 (cyCD137) (cynomolgus monkey, UniProt A9YYE7 24-186); test: ELISA, plate-coated soluble cynomolgus CD137
T4 construct: extracellular domain; also called scyCD137 His; scyCD137 hFc; not shown: His tag or human Fc Region

[6] = target: T2, CD137 expressed on the cell surface …; test: flow cytometry on CHO/CD137 cells (Surface Binding)
Procedure: (§1) FACS analysis to evaluate the test articles for binding to cell surface CD137 was performed essentially as follows: 100 μL of CHO cells expressing CD137 (CHO/CD137) (1.0×10⁵ to 1×10⁶ cells/well) and 100 μL of serially diluted test article or control was added to each well of microtiter assay plate(s), mixed and incubated at RT for about 30 min. The cells were washed with FACS Buffer and secondary antibody (goat anti-human-APC, PE, or FITC) was then added to each well (1:1000), after which, the components were mixed and the wells were incubated at RT for about 30 min. Cells were washed and resuspended in 250 μL FACS Buffer and analyzed by flow cytometry (BD LSR Fortessa or FACSCanto II) for cell events collection. Data analysis were performed via FloJo v10.

[7] = target: T3, His-tagged soluble human CD137 fusion …; test: BIACORE SPR, antibody captured on anti-human Fc, soluble CD137 His as analyte, 1:1 model
From the text: The binding kinetics of the anti-CD137 antibodies (having human Fc regions) were investigated using BIACORE™ SPR analysis. The anti-CD137 antibodies were captured on a Fab′2 goat-anti-human Fc surface.

[8] = target: T1, PD-L1 expressed on the cell surface …; test: cell-based or functional assay; remark: listed apart in the source
[9] = target: T1, PD-L1 expressed on the cell surface …; test: cell-based or functional assay; remark: listed apart in the source
[10] = target: T2, CD137 expressed on the cell surface …; test: flow cytometry (FACS) on CHO cells expressing CD137, MFI; remark: listed apart in the source
Procedure: as §1

[11] = target: T1, PD-L1 expressed on the cell surface …; test: flow cytometry (FACS) on CHO cells expressing PD-L1, MFI
Procedure: (§2) FACS analysis to evaluate the test articles for binding to cell surface PD-L1 was performed essentially as follows: 100 μL of CHO cells expressing PD-L1 (CHO/PD-L1) (1.0×10⁵ to 1.0×10⁶ cells/well) and 100 μL of serially diluted test article was added to each well of microtiter assay plate(s), mixed and incubated at RT for about 30 min. The cells were washed with FACS Buffer and secondary antibody (goat anti-human-FITC, PE, or APC) was then added to each well, after which, the components were mixed and the wells were incubated at RT for about 30 min. Cells were washed and resuspended in 250 μL FACS Buffer and analyzed by flow cytometry (BD LSR Fortessa or FACSCanto II) for cell events collection. Data analysis were performed via FloJo v10.
Test articles were used at 10 μg/mL and five-fold serial dilutions for the FACS analysis and at 50 μg/mL and five-fold serial dilutions for the PD-L1 reporter assay.

[12] = target: T1, PD-L1 expressed on the cell surface …; test: as above; remark: listed apart in the source
Procedure: as §2

[13] = target: T3, His-tagged soluble human CD137 fusion …; test: ELISA, plate-coated soluble human CD137, hybridoma supernatant
Procedure: (§3) ELISA assays to evaluate the test articles for CD137 binding were performed essentially as follows: flat bottom maxisorb 96-well plates were coated with soluble human or cynomolgus monkey CD137 (the extracellular domain of human or cynomolgus monkey CD137 fused to a His tag (shCD137 His or scyCD137 His) or to a human Fc Region (shCD137 hFc or scyCD137 hFc)), each at 0.5 or 1 μg/mL. The plates were washed, blocked with PBS buffer containing 0.5% bovine serum albumin and 0.1% Tween20, and incubated with a test article (e.g., cell supernatants or purified mAb). For the hybridoma supernatants anti-CD137 antibody was utilized at 1.0 μg/mL and six three-fold serial dilutions. The amount of test article binding to the immobilized CD137 (human or cynomolgus monkey) was assessed using a goat anti-mouse IgG-HRP secondary antibody. All samples were analyzed on a plate reader (Victor 2 Wallac, Perkin Elmer) and EC50 values were calculated from dose-response curves by nonlinear regression analysis.

[14] = target: T4, soluble cynomolgus monkey CD137 …; test: ELISA, plate-coated soluble cynomolgus CD137, hybridoma supernatant
Procedure: as §3

T1 sequence (Q9NZQ7 19-290): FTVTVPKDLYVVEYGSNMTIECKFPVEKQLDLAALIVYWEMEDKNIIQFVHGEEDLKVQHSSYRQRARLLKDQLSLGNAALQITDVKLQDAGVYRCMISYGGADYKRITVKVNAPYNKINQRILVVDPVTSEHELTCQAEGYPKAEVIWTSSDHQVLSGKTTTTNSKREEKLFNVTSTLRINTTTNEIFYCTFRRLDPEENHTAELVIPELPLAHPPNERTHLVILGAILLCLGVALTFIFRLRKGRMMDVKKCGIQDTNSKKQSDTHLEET
T2 sequence (Q07011 24-255 limits assumed): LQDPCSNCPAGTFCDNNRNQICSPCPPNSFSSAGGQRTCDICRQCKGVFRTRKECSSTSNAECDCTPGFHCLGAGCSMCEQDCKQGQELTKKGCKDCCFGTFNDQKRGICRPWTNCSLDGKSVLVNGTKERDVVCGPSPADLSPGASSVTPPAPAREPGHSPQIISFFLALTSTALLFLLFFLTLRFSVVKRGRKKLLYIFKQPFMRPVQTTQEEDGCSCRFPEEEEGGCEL
T3 sequence (Q07011 24-186): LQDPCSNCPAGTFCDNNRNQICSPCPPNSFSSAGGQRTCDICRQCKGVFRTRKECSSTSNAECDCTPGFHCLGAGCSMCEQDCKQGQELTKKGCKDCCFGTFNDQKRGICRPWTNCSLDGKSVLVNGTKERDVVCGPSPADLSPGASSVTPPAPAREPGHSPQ
T4 sequence (A9YYE7 entry or part of it): as the sequence (Q07011 24-186) above, with P4L, N19S, R50K, T66I, P67S, F69Y, G75E, V149A counted along it

B2: chCD137 MAB-3 (antibody, V domains shown)
VH: QVQLQQPGAELVRPGASVKLSCKASGYTFTSYWINWVKQRPGQGLEWIGNIYPSDSYTNYNQKFKDKATLTVDKSSSTAYMQLSSPTSEDSAVYYCTRDYGSSYSFDYWGQGTTLTVSS
VL: DIQMTQTTSSLSASLGDRVTISCRPSQDISNYLNWYQQKPDGTVKLLIYYTSRLRSGVPSRFSGSGSGTDYSLTISNLEQEDIATYFCQQGDTLPYTFGGGTKLEIK
EC50 [4]: 0.034 µg/mL
EC50 [5]: 0.044 µg/mL
EC50 [6]: 0.01 µg/mL
Kd [7]: 38 nM
koff [7]: 0.025 s⁻¹
kon [7]: 660000 M⁻¹ s⁻¹

B4: CD137 MAB-6 (1.1) (antibody, V domains shown)
VH: QVQLQESGPGLVKPSETLSLTCTVSGGSISSYYWSWIRQPPGKGLEWIGRIYTSGSTNYNPSLKSRVTMSVDTSKNQFSLKLSSVTAADTAVYYCARDGWYDEDYNYYGMDVWGQGTTVTVSS
VL: EIVMTQSPATLSLTPGERATLSCRASQSVSSNYLSWFQQIPGQAPRLLIYGASTRATGIPARFSGSGSGTDFTLTISSLQPEDFAVYYCQQDYDLPWTFGQGTKVEIK
notes: Fully human variable domains from a TRIANNI MOUSE hybridoma
EC50 [6]: 0.021 µg/mL
EC50 [13]: 0.038 µg/mL
EC50 [14]: 0.049 µg/mL
Kd [7]: 16 nM
koff [7]: 0.0067 s⁻¹
kon [7]: 420000 M⁻¹ s⁻¹

Other lines, results leading:

EC50 (read off the curve) [1]: ~0.2 µg/mL
EC50 (read off the curve) [2]: ~0.4 µg/mL
EC50 (read off the curve) [3]: ~0.01 µg/mL
B1: TRIDENT-A4 (bispecific antibody, human IgG1, kappa, L234A L235A)
chain 1: EIVMTQSPATLSLTPGERATLSCRASQSVSSNYLSWFQQIPGQAPRLLIYGASTRATGIPARFSGSGSGTDFTLTISSLQPEDFAVYYCQQDYDLPWTFGQGTKVEIKGGGSGGGGQVQLQESGPGLVKPSETLSLTCTVSGGSISSYYWSWIRQPPGKGLEWIGRIYTSGSTNYNPSLKSRVTMSVDTSKNQFSLKLSSVTAADTAVYYCARDGWYDEDYNYYGMDVWGQGTTVTVSSGGCGGGEVAALEKEVAALEKEVAALEKEVAALEKGGGDKTHTCPPCPAPEAAGGPSVFLFPPKPKDTLYITREPEVTCVVVDVSHEDPEVKFNWYVDGVEVHNAKTKPREEQYNSTYRVVSVLTVLHQDWLNGKEYKCKVSNKALPAPIEKTISKAKGQPREPQVYTLPPSREEMTKNQVSLWCLVKGFYPSDIAVEWESNGQPENNYKTTPPVLDSDGSFFLYSKLTVDKSRWQQGNVFSCSVMHEALHNHYTQKSLSLSPGK
chain 2: EIVMTQSPATLSLTPGERATLSCRASQSVSSNYLSWFQQIPGQAPRLLIYGASTRATGIPARFSGSGSGTDFTLTISSLQPEDFAVYYCQQDYDLPWTFGQGTKVEIKGGGSGGGGQVQLQESGPGLVKPSETLSLTCTVSGGSISSYYWSWIRQPPGKGLEWIGRIYTSGSTNYNPSLKSRVTMSVDTSKNQFSLKLSSVTAADTAVYYCARDGWYDEDYNYYGMDVWGQGTTVTVSSGGCGGGKVAALKEKVAALKEKVAALKEKVAALKE
heavy: EVQLVESGGGLVQPGGSLRLSCAASGFTFSSYTMSWVRQAPGKGLEWVAYISIKGGTTYYPDTVKGRFTISRDNAKNSLYLQMNSLRAEDTAVYYCARQGLPYYGDYWGQGTLVTVSSASTKGPSVFPLAPSSKSTSGGTAALGCLVKDYFPEPVTVSWNSGALTSGVHTFPAVLQSSGLYSLSSVVTVPSSSLGTQTYICNVNHKPSNTKVDKRVEPKSCDKTHTCPPCPAPEAAGGPSVFLFPPKPKDTLYITREPEVTCVVVDVSHEDPEVKFNWYVDGVEVHNAKTKPREEQYNSTYRVVSVLTVLHQDWLNGKEYKCKVSNKALPAPIEKTISKAKGQPREPQVYTLPPSREEMTKNQVSLSCAVKGFYPSDIAVEWESNGQPENNYKTTPPVLDSDGSFFLVSKLTVDKSRWQQGNVFSCSVMHEALHNRYTQKSLSLSPGK
light: DIQMTQSPSSLSASVGDRVTITCKASQDVNEAVAWYQQKPGKAPKLLIYWASTRHTGVPSRFSGSGSGTDFTLTISSLQPEDFATYYCQQHYNTPLTFGQGTKVEIKRTVAAPSVFIFPPSDEQLKSGTASVVCLLNNFYPREAKVQWKVDNALQSGNSQESVTEQDSKDSTYSLSSTLTLSKADYEKHKVYACEVTHQGLSSPVTKSFNRGEC
notes: Trivalent; two CD137 MAB-6(1.1) sites, one hPD-L1 MAB-2(3.2) site

EC50 (read off the curve) [8]: ~0.08 µg/mL
EC50 (read off the curve) [9]: ~0.2 µg/mL
EC50 (read off the curve) [10]: ~0.06 µg/mL
EC50 (read off the curve) [11]: ~0.04 µg/mL
EC50 (read off the curve) [12]: ~0.02 µg/mL
B3: DART-A (bispecific antibody, IgG1)
chain 1: DIQMTQSPSSLSASVGDRVTITCKASQDVNTAVAWYQQKPGKAPKLLIYWASTRHTGVPSRFSGSGSGTDFTLTISSLQPEDFATYYCQQHYNTPLTFGQGTKVEIKGGGSGGGGQVQLQESGPGLVKPSETLSLTCTVSGGSISSYYWSWIRQPPGKGLEWIGRIYTSGSTNYNPSLKSRVTMSVDTSKNQFSLKLSSVTAADTAVYYCARDGWYDEDYNYYGMDVWGQGTTVTVSSGGCGGGEVAACEKEVAALEKEVAALEKEVAALEKLEPKSADKTHTCPPCPAPEAAGGPSVFLFPPKPKDTLYITREPEVTCVVVDVSHEDPEVKFNWYVDGVEVHNAKTKPREEQYNSTYRVVSVLTVLHQDWLNGKEYKCKVSNKALPAPIEKTISKAKGQPREPQVYTLPPSREEMTKNQVSLTCLVKGFYPSDIAVEWESNGQPENNYKTTPPVLDSDGSFFLYSKLTVDKSRWQQGNVFSCSVMHEALHNHYTQKSLSLSPG
chain 2: EIVMTQSPATLSLTPGERATLSCRASQSVSSNYLSWFQQIPGQAPRLLIYGASTRATGIPARFSGSGSGTDFTLTISSLQPEDFAVYYCQQDYDLPWTFGQGTKVEIKGGGSGGGGEVQLVESGGGLVQPGGSLRLSCAASGFTFSSYTMSWVRQAPGKGLEWVAYISIGGGTTYYPDTVKGRFTISRDNAKNTLYLQMNSLKTEDTAVYYCARQGLPYYFDYWGQGTLVTVSSGGCGGGKVAACKEKVAALKEKVAALKEKVAALKE
notes: Tetravalent CD137 x PD-L1 Fc diabody; CD137 MAB-6(1.1) and hPD-L1 MAB-2(1.1); IgG1 (AA/YTE)

— patent publication US20230094162A1 (MacroGenics, published 2023)
